# ± gives the standard error. For some of these results: Fewer inactive variants are shown than the library holds.
# B1: glmS ribozyme (parent)
# chain: AUAAAAGCGCCAGAACUACAGAAAUGUAGUUGACGAGGAGGAGGUUUAUCGAAUUUUCGGCGGAUGCCUCCAAA
# Tests used:
# Conditions in all cases: with glucosamine-6-phosphate
# [1] = variants of: B1; assay: kcat; higher = faster cleavage; RNA array
# Outline: (§1)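 Glucosamine-6-phosphate in HEPES/KCl/Mg(OAc)2 buffer, at 40 μM to 10 mM, was flowed over barcoded ribozyme variants transcribed in situ by E. coli RNA polymerase on sequenced MiSeq chips. Tracking was through a hybridised Cy3 probe at 37 °C. kobs, kcat and KM came from exponential decay fits and weighted Michaelis–Menten fits of normalised per-tile medians.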
# [2] = variants of: B1; assay: self-cleavage kobs at 640 uM GlcN6P; higher = faster cleavage; RNA array
# Outline: as §1
# [3] = variants of: B1; assay: self-cleavage kobs at 2500 uM GlcN6P; higher = faster cleavage; RNA array
# Outline: as §1
# [4] = variants of: B1; assay: self-cleavage kobs at 40 uM GlcN6P; higher = faster cleavage; RNA array
# Outline: as §1
# [5] = variants of: B1; assay: self-cleavage kobs at 160 uM GlcN6P; higher = faster cleavage; RNA array
# Outline: as §1
# [6] = variants of: B1; assay: self-cleavage kobs at 10000 uM GlcN6P; higher = faster cleavage; RNA array
# Outline: as §1
# [7] = variants of: B1; assay: KM; higher = weaker cofactor use; RNA array
# Outline: as §1
Variant,kcat [1] [s⁻¹],self-cleavage kobs at 640 uM GlcN6P [2] [s⁻¹],self-cleavage kobs at 2500 uM GlcN6P [3] [s⁻¹],self-cleavage kobs at 40 uM GlcN6P [4] [s⁻¹],self-cleavage kobs at 160 uM GlcN6P [5] [s⁻¹],self-cleavage kobs at 10000 uM GlcN6P [6] [s⁻¹],KM [7] [µM]
A15U C68G,4.37e-05 ± 1e-05,2.81e-05 ± 1.4e-05,4.48e-05 ± 1e-05,,,,
A12C C67G,0.00173 ± 0.00067,0.000444 ± 5.8e-05,0.00106 ± 0.00012,6.89e-05 ± 6e-06,0.000199 ± 2.4e-05,0.00265 ± 0.00032,
G7U C10U G37A C67A,3.55e-05 ± 1.6e-05,,,,,,
U46C C70U,0.00656 ± 0.0027,0.00156 ± 0.00017,0.00301 ± 0.00041,0.00017 ± 2.3e-05,0.00026 ± 3.8e-05,0.00508 ± 0.00066,
C11U A53U U54C C58A,1.72e-05 ± 2.3e-06,< 1e-05,,,,,
U46C A53G,0.00366 ± 0.0005,0.00119 ± 0.00015,0.0025 ± 0.00035,8.69e-05 ± 1.5e-05,0.000402 ± 6.7e-05,0.00272 ± 0.00067,1430 ± 280
G7A C70U,6.43e-05 ± 1.1e-05,,,,,4.14e-05 ± 7.5e-06,5580 ± 2200
A14G C58U,0.000263 ± 4.8e-05,,5.32e-05 ± 1.9e-05,< 1e-05,,0.000129 ± 2.9e-05,
G13A C71U,0.00103 ± 0.00012,0.000138 ± 2e-05,0.000358 ± 5.1e-05,,2.52e-05 ± 8.2e-06,0.000698 ± 5.9e-05,4730 ± 920
G41U A48U,5.64e-05 ± 5.9e-06,,,,,4.45e-05 ± 1.4e-05,2530 ± 840
G59U U69G,2.94e-05 ± 8.4e-06,,,,,,
U57C C70A,1.97e-05 ± 8.4e-06,,,,,,
A36U A39C,< 1e-05,,< 1e-05,< 1e-05,< 1e-05,< 1e-05,
G37C C50A C58A U69A,5.12e-05 ± 2.4e-05,8.62e-05 ± 3.4e-05,,,,,
G51U C67A C71U,2.47e-05 ± 3.5e-06,,,,,,
G37A G43U,4.94e-05 ± 4.8e-06,,4.23e-05 ± 7.6e-06,< 1e-05,< 1e-05,4.34e-05 ± 1.1e-05,620 ± 300
A6C U55A,9.15e-05 ± 2.5e-05,,7.01e-05 ± 1.6e-05,,,7.27e-05 ± 1.2e-05,
C10U C11U,3.12e-05 ± 1.5e-05,,,< 1e-05,< 1e-05,,
G13C U47A G59U C67G,1.81e-05 ± 2.9e-06,< 1e-05,,,,,
A53C C71A,0.000797 ± 0.00016,0.000254 ± 0.00011,0.000705 ± 0.00017,,6.89e-05 ± 1.5e-05,0.000613 ± 0.00013,1610 ± 520
U56G U69C C70A,6.04e-05 ± 1.7e-05,8.99e-05 ± 2.7e-05,6.56e-05 ± 1.5e-05,,4.37e-05 ± 1.6e-05,,
A15G G40C,0.00522 ± 0.0011,0.00122 ± 0.00017,0.0027 ± 0.00028,0.000151 ± 1.6e-05,0.000354 ± 6.3e-05,0.00506 ± 0.00049,1800 ± 590
U31G U49G,0.000191 ± 2.6e-06,4.38e-05 ± 1.9e-05,0.000102 ± 1.4e-05,,,0.000157 ± 1.4e-05,2140 ± 89
C67U C70A,1.69e-05 ± 4.5e-06,,,,,,

Variant,kcat [1] [s⁻¹],self-cleavage kobs at 640 uM GlcN6P [2] [s⁻¹],self-cleavage kobs at 2500 uM GlcN6P [3] [s⁻¹],self-cleavage kobs at 40 uM GlcN6P [4] [s⁻¹],self-cleavage kobs at 160 uM GlcN6P [5] [s⁻¹],self-cleavage kobs at 10000 uM GlcN6P [6] [s⁻¹],KM [7] [µM]
G51U U69A,5.12e-05 ± 2.4e-05,7.72e-05 ± 1.7e-05,,,,,
G38C C61A,< 1e-05,,< 1e-05,,< 1e-05,,
A12U C67U,0.0497 ± 0.018,0.0142 ± 0.0033,0.0421 ± 0.012,0.000918 ± 0.0001,,0.0378 ± 0.0074,2250 ± 970
A6U C61G,< 1e-05,< 1e-05,,,< 1e-05,,
C50U C61G C70U,1.56e-05 ± 2.6e-06,,,,,,
C61G U69C C70G,5.75e-05 ± 1.9e-05,6.36e-05 ± 2.5e-05,8.71e-05 ± 4.1e-05,,5.95e-05 ± 2.1e-05,,
U57G G59U U65G C68U,1.85e-05 ± 4.8e-06,,,,,,
A15G C61A,< 1e-05,,,,,,
A12U G13C,< 1e-05,< 1e-05,,< 1e-05,< 1e-05,,
A36U C71U,< 1e-05,< 1e-05,,,,,
A15C A42G A53C,0.00239 ± 0.001,0.000469 ± 0.00012,0.000746 ± 0.00018,,,0.00192 ± 0.00042,
A52C U55G,5.71e-05 ± 5.1e-06,,,< 1e-05,,,
U31C C71A,0.000686 ± 0.00019,0.00018 ± 1.9e-05,0.000669 ± 9.6e-05,3.6e-05 ± 1.1e-05,7.42e-05 ± 8.6e-06,0.00057 ± 7.8e-05,1470 ± 630
C50U C68U,2.09e-05 ± 3.8e-06,,3e-05 ± 1.2e-05,,,,
G13U A14G C61A,1.4e-05 ± 5.4e-06,,,< 1e-05,,,
U31G G62U C71G,< 1e-05,,,,,,
C10U C70G,2.35e-05 ± 4.9e-06,,2.76e-05 ± 1.3e-05,,,,
C58U G59U,< 1e-05,< 1e-05,,< 1e-05,,< 1e-05,
U30A,0.0142 ± 0.0014,0.00244 ± 0.00012,0.00727 ± 0.00029,0.000227 ± 5e-06,0.000758 ± 6.8e-05,0.0114 ± 0.00039,2550 ± 310
A36C C71G,1.27e-05 ± 2.5e-06,,,,,,
G9U A42G U47C,< 1e-05,< 1e-05,,,< 1e-05,,
C16G U30A,0.000474 ± 6e-05,0.00012 ± 2.3e-05,0.000313 ± 6.1e-05,,3.9e-05 ± 1.2e-05,0.000372 ± 9.2e-05,1780 ± 370
A15U G32C,0.000139 ± 7.8e-06,3.14e-05 ± 7.2e-06,6.49e-05 ± 8.6e-06,,,0.000112 ± 9.6e-06,2550 ± 370
C16G A64G,0.00475 ± 0.0023,0.00103 ± 0.00014,0.00156 ± 0.00036,0.000127 ± 1.8e-05,0.000468 ± 0.00021,0.00584 ± 0.00071,

Variant,kcat [1] [s⁻¹],self-cleavage kobs at 640 uM GlcN6P [2] [s⁻¹],self-cleavage kobs at 2500 uM GlcN6P [3] [s⁻¹],self-cleavage kobs at 40 uM GlcN6P [4] [s⁻¹],self-cleavage kobs at 160 uM GlcN6P [5] [s⁻¹],self-cleavage kobs at 10000 uM GlcN6P [6] [s⁻¹],KM [7] [µM]
A14C G66U,0.000181 ± 3.7e-05,8.12e-05 ± 1.4e-05,9.62e-05 ± 2e-05,,,0.000191 ± 2.6e-05,
G13A U55G C71G,4.93e-05 ± 1.6e-05,,7.49e-05 ± 2.8e-05,< 1e-05,,4.08e-05 ± 1.6e-05,
G62C C70U,< 1e-05,< 1e-05,,< 1e-05,< 1e-05,< 1e-05,
G40C C61U,< 1e-05,< 1e-05,,< 1e-05,< 1e-05,,
A14G A15U U30G,0.0196 ± 0.0037,0.0127 ± 0.0037,0.0232 ± 0.0085,0.00266 ± 0.00038,0.00652 ± 0.0021,,263 ± 69
A12U U47A,0.063 ± 0.02,0.0249 ± 0.0068,0.0403 ± 0.011,0.00189 ± 0.00018,0.0041 ± 0.00089,0.0554 ± 0.01,1490 ± 570
A12G C50G,1.17e-05 ± 2.1e-06,,,,,,
A52U C70A,5.6e-05 ± 1.2e-05,3.63e-05 ± 1.3e-05,8.32e-05 ± 1.6e-05,,3.06e-05 ± 1.5e-05,4.7e-05 ± 1e-05,
U49G G66A,0.000689 ± 0.00024,5.55e-05 ± 1.3e-05,0.00024 ± 3.6e-05,,,0.000375 ± 9.3e-05,6210 ± 3000
U46G,0.0111 ± 0.0013,0.00241 ± 6.1e-05,0.00589 ± 0.00015,0.000228 ± 4.5e-06,0.000671 ± 2.7e-05,0.00965 ± 0.00026,2110 ± 340
A12C G29C,0.00327 ± 0.00068,0.000508 ± 5.3e-05,0.00139 ± 0.00023,6.03e-05 ± 6.2e-06,0.000193 ± 2.7e-05,0.00271 ± 0.00022,2770 ± 820
G29C A48U U69G,6.26e-05 ± 2.1e-05,5.01e-05 ± 2.1e-05,7.04e-05 ± 3e-05,,,,
A53G U55A,0.0853 ± 0.029,0.0112 ± 0.002,0.0611 ± 0.023,0.00112 ± 0.00013,0.00332 ± 0.00069,0.065 ± 0.014,3480 ± 1400
G59U C67A,1.11e-05 ± 3.2e-06,,,< 1e-05,,,
G43U U55A,2.33e-05 ± 3.8e-07,,,,< 1e-05,,1170 ± 67
G40U C70G,0.000495 ± 8.8e-05,0.000121 ± 1e-05,0.000346 ± 3.4e-05,2.91e-05 ± 7.3e-06,4.28e-05 ± 7.1e-06,0.000404 ± 3.4e-05,1770 ± 560
U31C A39U,0.00686 ± 0.0022,0.000692 ± 6.8e-05,0.00175 ± 0.00023,7.06e-05 ± 8.4e-06,0.000146 ± 1.5e-05,0.00432 ± 0.00036,6250 ± 2600
G43U C68U,0.00467 ± 0.00089,0.00188 ± 0.00022,0.00344 ± 0.00047,0.000181 ± 1.5e-05,0.000436 ± 4.8e-05,0.00404 ± 0.0004,1190 ± 320
C61A C67G,2.3e-05 ± 5e-06,2.63e-05 ± 1.3e-05,,,,,
A48C U56C,5.47e-05 ± 1.8e-06,< 1e-05,4.83e-05 ± 1.6e-05,,,5.27e-05 ± 1.2e-05,357 ± 160
A6G G37U,< 1e-05,,,< 1e-05,< 1e-05,< 1e-05,
C67U,0.0229 ± 0.0033,0.00529 ± 0.0002,0.0117 ± 0.00055,0.000527 ± 1.7e-05,0.0016 ± 0.00012,0.0215 ± 0.00087,1910 ± 390
U56G A64C,7.21e-05 ± 4.9e-06,2.44e-05 ± 1.1e-05,3.92e-05 ± 1.5e-05,,< 1e-05,6.35e-05 ± 8.6e-06,1500 ± 420
G9U A14G,1.09e-05 ± 5.1e-06,,< 1e-05,< 1e-05,,< 1e-05,
